Assay results reported in patent US20240392262A1, “TRANSPOSASE AND USES THEREOF” (Poseida Therapeutics, Inc., published 2024).
Residue numbers refer to the chain shown, from its start.

B1: PAH1 target (dsDNA)
DNA 1: TGAGATGATGTAACATCTATTCCATTAATTTCATTAACTTGCTTACAAGAGA
DNA 2: TCTCTTGTAAGCAAGTTAATGAAATTAATGGAATAGATGTTACATCATCTCA
B2: GFP1R 13 bp 5'A (dsDNA)
DNA 1: AGCAGATGAACGCAATCTCACGGCTTAACTACTGACCTGAAGTTCATCTGCT
DNA 2: AGCAGATGAACTTCAGGTCAGTAGTTAAGCCGTGAGATTGCGTTCATCTGCT
B3: GFP1R 13 bp 5'C (dsDNA)
DNA 1: B2 DNA 1 with A1C, T52G
DNA 2: B2 DNA 2 with A1C, T52G

Key:
PAH1 Left TAL-PBx = molecular target: T1, PAH1 Left TAL-PBx (synthetic construct); test: cell_activity; left only; settings: tags: 3xFlag, SV40 NLS
T1 chain: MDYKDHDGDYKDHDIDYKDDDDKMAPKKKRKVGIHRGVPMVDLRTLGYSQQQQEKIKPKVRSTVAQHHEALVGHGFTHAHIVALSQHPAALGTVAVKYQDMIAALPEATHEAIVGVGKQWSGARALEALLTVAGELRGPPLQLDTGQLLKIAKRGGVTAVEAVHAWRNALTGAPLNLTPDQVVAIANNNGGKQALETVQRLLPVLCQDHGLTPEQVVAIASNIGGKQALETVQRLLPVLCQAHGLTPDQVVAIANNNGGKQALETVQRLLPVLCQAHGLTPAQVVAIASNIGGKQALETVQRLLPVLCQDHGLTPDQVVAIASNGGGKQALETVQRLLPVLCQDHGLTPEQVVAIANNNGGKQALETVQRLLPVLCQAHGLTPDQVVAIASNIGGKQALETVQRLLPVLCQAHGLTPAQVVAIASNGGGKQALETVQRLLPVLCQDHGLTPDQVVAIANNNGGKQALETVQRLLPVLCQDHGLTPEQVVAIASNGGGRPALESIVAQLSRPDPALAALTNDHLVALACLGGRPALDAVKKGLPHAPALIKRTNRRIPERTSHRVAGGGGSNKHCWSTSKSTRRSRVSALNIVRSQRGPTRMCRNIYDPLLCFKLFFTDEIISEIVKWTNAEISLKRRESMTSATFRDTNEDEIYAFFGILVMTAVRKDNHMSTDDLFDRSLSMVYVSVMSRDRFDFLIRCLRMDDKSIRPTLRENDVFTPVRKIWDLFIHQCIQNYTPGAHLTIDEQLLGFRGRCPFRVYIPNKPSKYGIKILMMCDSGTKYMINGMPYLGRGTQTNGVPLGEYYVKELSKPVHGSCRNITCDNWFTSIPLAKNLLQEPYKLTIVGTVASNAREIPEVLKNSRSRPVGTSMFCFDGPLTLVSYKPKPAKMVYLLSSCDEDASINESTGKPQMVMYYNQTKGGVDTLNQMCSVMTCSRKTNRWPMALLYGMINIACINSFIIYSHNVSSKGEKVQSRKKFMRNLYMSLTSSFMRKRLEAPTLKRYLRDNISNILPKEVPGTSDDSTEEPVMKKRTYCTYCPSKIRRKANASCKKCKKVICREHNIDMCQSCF

PAH1 Right TAL-PBx = molecular target: T2, PAH1 Right TAL-PBx (synthetic construct); test: cell_activity; right only; settings: tags: 3xFlag, SV40 NLS
T2 chain: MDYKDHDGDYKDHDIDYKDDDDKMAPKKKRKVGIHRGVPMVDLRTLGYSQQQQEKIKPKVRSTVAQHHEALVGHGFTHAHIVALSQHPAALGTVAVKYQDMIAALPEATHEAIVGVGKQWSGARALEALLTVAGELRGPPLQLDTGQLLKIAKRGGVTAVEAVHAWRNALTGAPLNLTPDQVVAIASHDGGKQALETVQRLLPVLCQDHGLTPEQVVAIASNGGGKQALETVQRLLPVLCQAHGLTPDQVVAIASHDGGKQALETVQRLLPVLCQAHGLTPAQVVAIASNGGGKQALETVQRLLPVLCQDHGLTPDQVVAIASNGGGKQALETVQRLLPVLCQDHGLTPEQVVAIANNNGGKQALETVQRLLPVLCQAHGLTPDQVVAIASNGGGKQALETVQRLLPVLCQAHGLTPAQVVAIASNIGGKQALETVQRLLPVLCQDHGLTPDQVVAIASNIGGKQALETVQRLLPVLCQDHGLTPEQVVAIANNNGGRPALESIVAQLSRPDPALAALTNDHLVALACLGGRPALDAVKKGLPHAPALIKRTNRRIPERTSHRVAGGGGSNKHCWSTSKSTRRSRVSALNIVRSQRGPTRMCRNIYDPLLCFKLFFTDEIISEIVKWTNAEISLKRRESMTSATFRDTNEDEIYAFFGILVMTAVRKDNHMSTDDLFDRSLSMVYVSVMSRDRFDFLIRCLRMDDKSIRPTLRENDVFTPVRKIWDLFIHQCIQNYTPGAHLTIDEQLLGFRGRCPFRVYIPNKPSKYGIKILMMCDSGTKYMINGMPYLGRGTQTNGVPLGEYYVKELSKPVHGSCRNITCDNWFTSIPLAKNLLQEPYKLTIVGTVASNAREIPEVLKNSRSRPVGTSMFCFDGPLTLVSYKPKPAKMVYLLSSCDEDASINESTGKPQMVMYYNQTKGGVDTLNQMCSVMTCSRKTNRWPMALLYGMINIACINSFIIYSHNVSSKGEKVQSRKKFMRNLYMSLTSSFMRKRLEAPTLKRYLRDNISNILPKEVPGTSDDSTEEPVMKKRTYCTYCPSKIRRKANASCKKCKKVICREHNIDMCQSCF

GFP1 Right TAL-PBx = molecular target: T3, GFP1 Right TAL-PBx (synthetic construct); test: cell_activity; settings: tags: 3xFlag, SV40 NLS; chain copies: 2
T3 chain: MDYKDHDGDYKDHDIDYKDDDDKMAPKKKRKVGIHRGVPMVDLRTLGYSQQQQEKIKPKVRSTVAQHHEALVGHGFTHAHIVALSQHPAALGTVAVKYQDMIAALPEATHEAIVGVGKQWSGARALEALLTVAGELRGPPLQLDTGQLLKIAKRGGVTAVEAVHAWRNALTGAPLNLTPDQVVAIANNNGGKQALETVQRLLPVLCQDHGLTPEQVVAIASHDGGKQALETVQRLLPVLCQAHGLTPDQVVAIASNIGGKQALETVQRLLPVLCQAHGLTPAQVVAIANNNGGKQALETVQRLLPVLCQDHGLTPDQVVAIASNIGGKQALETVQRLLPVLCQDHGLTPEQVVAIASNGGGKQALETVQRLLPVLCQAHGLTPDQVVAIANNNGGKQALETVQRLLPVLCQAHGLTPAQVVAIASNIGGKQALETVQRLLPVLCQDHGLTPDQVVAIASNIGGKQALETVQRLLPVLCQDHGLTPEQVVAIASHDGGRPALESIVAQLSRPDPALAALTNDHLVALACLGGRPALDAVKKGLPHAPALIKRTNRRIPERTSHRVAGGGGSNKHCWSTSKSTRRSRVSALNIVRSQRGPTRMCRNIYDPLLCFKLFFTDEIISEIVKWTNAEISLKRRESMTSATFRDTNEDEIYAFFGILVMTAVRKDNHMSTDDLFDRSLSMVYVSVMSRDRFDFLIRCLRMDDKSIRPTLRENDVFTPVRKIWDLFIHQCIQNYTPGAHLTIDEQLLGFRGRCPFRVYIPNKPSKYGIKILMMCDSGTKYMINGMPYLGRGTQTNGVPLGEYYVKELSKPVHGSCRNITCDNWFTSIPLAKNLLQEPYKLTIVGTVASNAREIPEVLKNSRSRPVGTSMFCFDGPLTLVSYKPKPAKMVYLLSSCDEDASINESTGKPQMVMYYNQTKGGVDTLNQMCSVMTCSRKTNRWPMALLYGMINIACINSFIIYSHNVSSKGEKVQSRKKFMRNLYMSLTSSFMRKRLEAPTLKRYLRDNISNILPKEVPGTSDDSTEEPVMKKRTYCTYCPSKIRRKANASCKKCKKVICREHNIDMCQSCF

GFP1 Right NT-G TAL-PBx = molecular target: T4, GFP1 Right NT-G TAL-PBx (synthetic construct); test: cell_activity; settings: tags: 3xFlag, SV40 NLS; chain copies: 2
T4 chain: T3 chain with Q119S, W120R

[1] = molecular target: T5, GFP1 Right NT-betaN TAL-PBx (synthetic construct); test: cell_activity; settings: tags: 3xFlag, SV40 NLS; chain copies: 2
T5 chain: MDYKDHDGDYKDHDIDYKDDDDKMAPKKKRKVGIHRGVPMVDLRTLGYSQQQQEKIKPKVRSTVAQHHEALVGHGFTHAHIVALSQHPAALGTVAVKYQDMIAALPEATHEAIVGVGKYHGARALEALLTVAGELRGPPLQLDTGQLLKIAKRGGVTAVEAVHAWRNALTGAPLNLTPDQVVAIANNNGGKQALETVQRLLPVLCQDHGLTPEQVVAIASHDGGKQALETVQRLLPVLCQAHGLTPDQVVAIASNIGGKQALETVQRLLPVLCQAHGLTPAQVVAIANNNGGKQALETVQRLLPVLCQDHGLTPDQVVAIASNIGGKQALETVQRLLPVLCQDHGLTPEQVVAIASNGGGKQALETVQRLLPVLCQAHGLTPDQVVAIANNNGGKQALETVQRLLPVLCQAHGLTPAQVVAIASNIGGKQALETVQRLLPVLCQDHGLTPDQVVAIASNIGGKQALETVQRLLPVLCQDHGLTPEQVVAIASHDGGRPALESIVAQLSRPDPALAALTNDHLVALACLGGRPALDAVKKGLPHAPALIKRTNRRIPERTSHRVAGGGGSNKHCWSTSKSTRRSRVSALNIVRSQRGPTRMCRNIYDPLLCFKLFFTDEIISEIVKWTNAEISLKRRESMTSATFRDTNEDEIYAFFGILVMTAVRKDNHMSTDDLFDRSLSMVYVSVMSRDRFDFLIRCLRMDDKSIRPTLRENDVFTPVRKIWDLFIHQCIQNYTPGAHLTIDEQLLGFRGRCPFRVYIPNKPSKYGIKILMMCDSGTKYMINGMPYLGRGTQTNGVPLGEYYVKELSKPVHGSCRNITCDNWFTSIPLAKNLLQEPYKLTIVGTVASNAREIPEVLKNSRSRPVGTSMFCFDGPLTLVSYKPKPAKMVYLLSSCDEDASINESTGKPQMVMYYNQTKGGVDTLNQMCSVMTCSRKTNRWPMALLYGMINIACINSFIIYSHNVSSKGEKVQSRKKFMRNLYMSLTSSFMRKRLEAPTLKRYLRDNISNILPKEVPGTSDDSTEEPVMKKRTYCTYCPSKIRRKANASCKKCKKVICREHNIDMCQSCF

| Binder | activity (PAH1 Left TAL-PBx) [% GFP+] | activity (PAH1 Right TAL-PBx) [% GFP+] | activity (GFP1 Right TAL-PBx) [% GFP+] | activity (GFP1 Right NT-G TAL-PBx) [% GFP+] | activity [1] [% GFP+] |
| --- | --- | --- | --- | --- | --- |
| B1 | 5.7 | 4.2 |  |  |  |
| B2 |  |  | 11.3 | 21.5 | 23.7 |
| B3 |  |  | 11.5 | 18.5 | 22.3 |
